Results on 14 molecules are retold here after patent publication US20150183820A1.

For orientation: Kd means the free concentration of one partner at which half of the binding sites on the other are occupied at equilibrium, for simple one-to-one binding. As a reminder, the koff is a measure of how fast the partners let go of each other. Higher therefore signals fast dissociation.

Where two headings read alike, the source gives them in different places.

In assay [1] the target is gamma-globulin derived from human serum (Wako Pharmaceuticals). The assay is described as follows: pH gradient affinity chromatography, commercial comparison column.
Assay [2] deals with IgG1 type humanized monoclonal antibody. The assay is described as follows: SPR, IgG1 antibody amine-coupled on CM-5 chip (5000 RU), pH 7.4, 25 C, 1:1 Langmuir. (In general: SPR reads the build-up and loss of mass on a sensor chip optically.)
Assay [3] has the same target.
Assay [4] shares this target. The assay is described as follows: SPR, IgG1 antibody amine-coupled on CM-5 chip, pH 7.4.
Assay [5] deals with human IgG3. The assay is described as follows: pH gradient affinity chromatography, Epoxy-activated Sepharose 6B immobilized column.
Assay [6] addresses gamma-globulin derived from human serum (Wako Pharmaceuticals). The assay is described as follows: pH gradient affinity chromatography, DSC-activated immobilized column.
Assay [7] deals with IgG1 type humanized monoclonal antibody. The assay is described as follows: pH gradient affinity chromatography, SulfoLink immobilized column.
In assay [8] the target is human IgG3. The description is as above.
The target of assay [9] is IgG1 type humanized monoclonal antibody. The assay is described as follows: pH gradient affinity chromatography, Epoxy-activated Sepharose 6B immobilized column.
The target of assay [10] is Fc region of human immunoglobulin (human). The assay is described as follows: SPR, Fc on CM4 chip, pH 4.5, 1:1 Langmuir.
Assay [11] shares this target. The assay is described as follows: SPR, Fc on CM5 chip, pH 7.4, 1:1 Langmuir.
The target is the same in assay [12]. The assay is described as follows: SPR, Fc on CM5 chip, pH 7.4.
Assay [13] shares this target. The assay is described as follows: SPR, Fc on CM4 chip, pH 4.5.
Assay [14] deals with ChromPure Human IgG, Fc Fragment (human). The assay is described as follows: stepwise pH affinity chromatography, binder immobilized on streptavidin column.
For assay [15], the target named is human immunoglobulin IgG. The assay is described as follows: SPR, binder on SA chip, dissociation at pH 4.0, 1:1 Langmuir.
Assay [16] has as its target human immunoglobulin IgG. The assay is described as follows: SPR, binder on SA chip, 1 uM IgG, dissociation in 10 mM sodium acetate pH 4.0.
The target of assay [17] is IgG1 type humanized monoclonal antibody. The assay is described as follows: pH gradient affinity chromatography, binder immobilized on streptavidin column.
Assay [18] addresses human immunoglobulin IgG. The assay is described as follows: SPR, binder on SA chip, dissociation at pH 4.0.

With “Sepharose 4 Fast Flow column (GE Healthcare)”, in assay [1], the elution peak pH stood at 3.2 pH.

B1: CGB19H-3D (designed binder)
chain: MAYYDPETGTWYSGGRDTYKLILNGKTLKGETTTEAVDAATAEKVFKHYANEHGVHGHWTYDPETKTFTVTERPEVIDASELTPAVDTYKLILNGKTLKGETTTEAVDAATAEKVFKHYANEHGVHGHWTYDPETKTFTVTERPEVIDASELTPAVDTYKLILNGKTLKGETTTEAVDAATAEKVFKHYANEHGVHGHWTYDPETKTFTVTERPEVIDASELTPAVGGGGCHHHHHH
In [2], B1 came in with a Kd of 0.1 nM. Moreover, the elution peak pH in [3] amounted to 4.3 pH; in assay [5], 4.9 pH; in [6], 3.6 pH; in assay [7] it was 4.3 pH; in assay [8], 5.2 pH. In assay [4], this molecule gave an avidity improvement against the single domain-type M-PG19 of 190 fold. In assay [4], the difference of the dissociation rate constants against M-PG19 is 370 times.

B2: CGB01H-3D (protein)
chain: MAYYDPETGTWYSGGRDTYKLILNGKTLKGETTTEAVDAATAEKVFKQYANDNGVDGEWTYDDATKTFTVTERPEVIDASELTPAVDTYKLILNGKTLKGETTTEAVDAATAEKVFKQYANDNGVDGEWTYDDATKTFTVTERPEVIDASELTPAVDTYKLILNGKTLKGETTTEAVDAATAEKVFKQYANDNGVDGEWTYDDATKTFTVTERPEVIDASELTPAVGGGGCHHHHHH
For the molecule B2, the elution peak pH in assay [9] came to 3.3 pH; in assay [5], 3.4 pH.

B3: M-PG07 (designed binder)
chain: MDTYKLILNGKTLKGETTTEAVDAATAEKVFKQYANEHGVDGEWTYDPETKTFTVTE
Take B3: the Kd in assay [10] worked out at 230 nM; in [11] it was 290 nM.

B4: M-PG19 (designed binder)
chain: MDTYKLILNGKTLKGETTTEAVDAATAEKVFKHYANEHGVHGHWTYDPETKTFTVTE
On to B4, for which the results for the Kd in [2], in [10] and in [11] were 19 nM, 1000 nM and 43 nM, respectively. Further, the avidity in the neutral region against M-PG01 in assay [12] turned out to be 11 times. The molecule further had an affinity in the acidic region against M-PG01 in [13] of 0.6 times.

B5: OXADac-PG01 (protein)
chain: MGAGTPVTAPLAGTIWKVLASEGQTVAAGEVLLILEAMKMETEIRAAQAGTVRGIAVKAGDAVAVGDTLMTLAGSGSDLYDDDDKGIITSLYKKAGSAAAPFTDTYKLILNGKTLKGETTTEAVDAATAEKVFKQYANDNGVDGEWTYDDATKTFTVTE
On to B5, for which, in assay [14], the recovery ratio of antibody in step-wise pH chromatography at pH 4.0 was 10%. Also, the koff in assay [15] was determined as 4.2e-05 s⁻¹. Also, in assay [16], the ratio of the remaining amount of antibody by SPR sensorgram at pH 4.0 amounted to 99%. In addition, the value of the elution peak of antibody in pH-gradient chromatography in assay [17] worked out at 3.18 pH.

B6: OXADac-PG07 (designed binder)
chain: MGAGTPVTAPLAGTIWKVLASEGQTVAAGEVLLILEAMKMETEIRAAQAGTVRGIAVKAGDAVAVGDTLMTLAGSGSDLYDDDDKGIITSLYKKAGSAAAPFTDTYKLILNGKTLKGETTTEAVDAATAEKVFKQYANEHGVDGEWTYDPETKTFTVTE
B6 displayed a koff in assay [15] of 0.00011 s⁻¹. The ratio of the remaining amount of antibody by SPR sensorgram at pH 4.0 in assay [16] was found to be 93%.

B7: OXADac-PG19 (designed binder)
chain: MGAGTPVTAPLAGTIWKVLASEGQTVAAGEVLLILEAMKMETEIRAAQAGTVRGIAVKAGDAVAVGDTLMTLAGSGSDLYDDDDKGIITSLYKKAGSAAAPFTDTYKLILNGKTLKGETTTEAVDAATAEKVFKHYANEHGVHGHWTYDPETKTFTVTE
For the molecule B7, in [14], the elution rate at pH 4 against the wild-type (OXADac-PG01) turned out to be 7 times and the recovery ratio of antibody in step-wise pH chromatography at pH 4.0 worked out at 88%. In assay [18], this molecule returned an increase of the dissociation rate constant against the wild-type (OXADac-PG01) (orders of magnitude) of 3 and a percent of adsorbed IgG dissociated at pH 4.0 of 60%. The same molecule came in with a koff in assay [15] of 0.27 s⁻¹. The ratio of the remaining amount of antibody by SPR sensorgram at pH 4.0 in [16] was found to be 38%. The same molecule yielded a value of the elution peak of antibody in pH-gradient chromatography in assay [17] of 4.04 pH.

B8: OXADac-PG20 (designed binder)
chain: MGAGTPVTAPLAGTIWKVLASEGQTVAAGEVLLILEAMKMETEIRAAQAGTVRGIAVKAGDAVAVGDTLMTLAGSGSDLYDDDDKGIITSLYKKAGSAAAPFTDTYKLILNGKTLKGETTTEAVHAATAEKVFKHYANEHGVHGHWTYDPETKTFTVTE
B8: in assay [14], the elution rate at pH 4 against the wild-type (OXADac-PG01) was 7 times and the recovery ratio of antibody in step-wise pH chromatography at pH 4.0 stood at 71%. The ratio of the remaining amount of antibody by SPR sensorgram at pH 4.0 in assay [16] worked out at 58%. In assay [17], this molecule had an elution pH difference against the wild-type (OXADac-PG01) of 1.1 pH points and a value of the elution peak of antibody in pH-gradient chromatography of 4.29 pH.

B9: OXADac-PG17 (designed binder)
chain: MGAGTPVTAPLAGTIWKVLASEGQTVAAGEVLLILEAMKMETEIRAAQAGTVRGIAVKAGDAVAVGDTLMTLAGSGSDLYDDDDKGIITSLYKKAGSAAAPFTDTYKLILNGKRLKGETITEAVDAATAEKVFKQYANEHGVDGEWTYDPETKTFTVTE
On to B9, for which the off-rate (koff) in assay [15] amounted to 0.032 s⁻¹. The ratio of the remaining amount of antibody by SPR sensorgram at pH 4.0 in assay [16] stood at 86%. The molecule also came in with a value of the elution peak of antibody in pH-gradient chromatography in assay [17] of 3.27 pH.

B10: OXADac-PG13 (designed binder)
chain: MGAGTPVTAPLAGTIWKVLASEGQTVAAGEVLLILEAMKMETEIRAAQAGTVRGIAVKAGDAVAVGDTLMTLAGSGSDLYDDDDKGIITSLYKKAGSAAAPFTDTYKLILNGKTLKGETTTEAVDAATAEKVFKQYANEHGVHGEWTYDPETKTFTVTE
In assay [15], B10 showed a koff of 0.06 s⁻¹. The ratio of the remaining amount of antibody by SPR sensorgram at pH 4.0 in [16] turned out to be 64%. In addition, the value of the elution peak of antibody in pH-gradient chromatography in assay [17] was found to be 3.56 pH.

B11: OXADac-PG15 (designed binder)
chain: MGAGTPVTAPLAGTIWKVLASEGQTVAAGEVLLILEAMKMETEIRAAQAGTVRGIAVKAGDAVAVGDTLMTLAGSGSDLYDDDDKGIITSLYKKAGSAAAPFTDTYKLILNGKRLKGETTTEAVDAATAEKVFKQYANEHGVDGEWTYDPETKTFTVTE
In the case of B11, the koff in assay [15] amounted to 0.00044 s⁻¹. For the same molecule, in assay [16], the ratio of the remaining amount of antibody by SPR sensorgram at pH 4.0 stood at 90%.

B12: OXADac-PG14 (designed binder)
chain: MGAGTPVTAPLAGTIWKVLASEGQTVAAGEVLLILEAMKMETEIRAAQAGTVRGIAVKAGDAVAVGDTLMTLAGSGSDLYDDDDKGIITSLYKKAGSAAAPFTDTYKLILNGKTLKGETTTEAVDAATAEKVFKQYANEHGVDGHWTYDPETKTFTVTE
In assay [15], B12 gave a koff of 0.04 s⁻¹. Moreover, in [16], the ratio of the remaining amount of antibody by SPR sensorgram at pH 4.0 turned out to be 71%.

B13: OXADac-PG16 (designed binder)
chain: MGAGTPVTAPLAGTIWKVLASEGQTVAAGEVLLILEAMKMETEIRAAQAGTVRGIAVKAGDAVAVGDTLMTLAGSGSDLYDDDDKGIITSLYKKAGSAAAPFTDTYKLILNGKTLKGETITEAVDAATAEKVFKQYANEHGVDGEWTYDPETKTFTVTE
Consider B13, for which the off-rate constant (koff) in assay [15] turned out to be 0.00013 s⁻¹. In [16], the ratio of the remaining amount of antibody by SPR sensorgram at pH 4.0 was 94%.
